Assay results published in patent publication US11618906B2, “Hydroxylation techniques” (HYPHA DISCOVERY LTD., priority 2018, dated 2023).
Changes are numbered by the printed parent chain. Names and notes keep the numbering of the source.

B1: aluC09M38: cytochrome P450 aluC09 mutant T291H; amino acid sequence SEQ ID NO: 64 (protein, listed as Amycolatopsis lurida)
chain: MTDVEETTATLPLARKCPFSPPPEYERLRRESPVSRVGLPSGQTAWALTRLEDIREMLSSPHFSSDRQSPSFPLMVARQIRREDKPFRPSLIAMDPPEHSRARRDVVGEFTVKRMKALQPRIQQIVDEHLDALLAGPKPADLVQALSLPVPSLVICELLGVPYSDHEFFQSCSSRMLSREVTAEERMTAFEQLENYLDELVTKKEANATEDDLLGRQILKQRETGEADHGELVGLAFLLLIAGHETTANMISLGTVTLLENPDQLAKIKADPGKTLAAIEELLRVFTIAEHATSRFATADVEIGGTLIRAGEGVVGLSNAGNHDPDGFENPDTFDIERGARHHVAFGFGVHQCLGQNLARLELQIVFDTLFRRVPGLRIAVPVDELPFKHDSTIYGLHALPVTW
B2: aluC09M12: cytochrome P450 aluC09 mutant T291E; amino acid sequence SEQ ID NO: 12 (protein, listed as Amycolatopsis lurida)
chain: B1 chain with H291E
B3: aluC09: wild-type cytochrome P450 aluC09 from Amycolatopsis lurida NRRL-2430; amino acid sequence SEQ ID NO: 2 (protein, listed as Amycolatopsis lurida)
chain: B1 chain with H291T

Assay: Hydroxylation of diclofenac catalysed by cytochrome P450 aluC09 and mutants (UPLC-PDA-MS)
Format: biochemical
Conditions: % by UV peak area at 275 nm; 0.125 mg/ml substrate, 27° C., 16-20 hours
How it was run: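 Conversion of diclofenac (0.125 mg/ml) to hydroxy metabolites measured by UPLC with UV and MS detection, identities confirmed by authentic samples. Reactions used P450 aluC09 variants with ferredoxin aluF03, reductase SCF15A and an NADP/G6P/G6PDH recycling system, pH 7.4 phosphate, 27° C, 16-20 hours.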

| Molecule | 4′,5-dihydroxy-diclofenac 1.38 mins [%] | 4′-hydroxy-diclofenac (1) 1.62 mins [%] | 5-hydroxy-diclofenac (2) 1.58 mins [%] | Diclofenac (Substrate) 1.81 mins [%] |
| --- | --- | --- | --- | --- |
| B1 | 2.9 | 44.5 | 18.9 | 35.6 |
| B2 | 1.8 | 30.3 | 10.8 | 58.0 |
| B3 | 3.1 | 27.0 | 26.2 | 45.2 |

Same assay, conditions: diclofenac; ratio of UV peak areas at 275nm

| Molecule | Hydroxylated Ratio hydroxy 1:hydroxy 2 |
| --- | --- |
| B1 | 2.4 |
| B2 | 2.8 |
| B3 | 1.0 |

Assay: Hydroxylation of flufenamic acid catalysed by cytochrome P450 aluC09 and mutants
Format: biochemical
Conditions: % by UV peak area at 275 nm; 0.125 mg/ml substrate, 27° C., 16-20 hours
How it was run: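 Conversion measured by UPLC-MS (UV and MS) after acetonitrile extraction, following 16-20 h shaking at 27° C. Reaction: 0.125 mg/ml substrate, P450 mutant plus ferredoxin aluF03 and reductase SCF15A, 5 mM G6P, 1 mM NADP, 2 U/ml G6PDH, pH 7.4 phosphate with 5 mM MgCl2.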

| Molecule | Flufenamic Acid (Substrate) 1.93 mins [%] | Hydroxy-Flufenamic Acid (1) 1.69 mins [%] | Hydroxy-Flufenamic Acid (2) 1.65 mins [%] |
| --- | --- | --- | --- |
| B1 | 95.3 | 2.9 | 1.8 |
| B2 | 95.9 | 2.0 | 2.1 |
| B3 | 93.1 | 4.5 | 2.4 |

Same assay, conditions: flufenamic acid; ratio of UV peak areas at 275 nm

| Molecule | Hydroxylated Ratio 1:2 |
| --- | --- |
| B1 | 1.6 |
| B2 | 0.9 |
| B3 | 1.9 |

Assay: Hydroxylation of aceclofenac catalysed by cytochrome P450 aluC09 and mutants
Format: biochemical
Conditions: % by UV peak area at 275 nm; 0.125 mg/ml substrate, 27° C., 16-20 hours
How it was run: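 Conversion was assessed by UPLC-MS (UV and MS detection) after acetonitrile extraction of reactions run 16-20 h at 27° C, shaking. Reactions contained substrate at 0.125 mg/ml, P450 mutant plus ferredoxin and reductase partners, 1 mM NADP with glucose-6-phosphate regeneration, in phosphate buffer pH 7.4.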

| Molecule | Aceclofenac (Substrate) (1.80 mins) [%] | Dihydroxy-Aceclofenac (1.42 mins) [%] | Hydroxy-Aceclofenac (1) (1.64 min) [%] | Hydroxy-Aceclofenac (2) (1.60 min) [%] |
| --- | --- | --- | --- | --- |
| B1 | 29.8 | 28.9 | 11.9 | 29.4 |
| B2 | 25.2 | 27.8 | 7.9 | 39.1 |
| B3 | 18.0 | 36.5 | 5.7 | 39.8 |

Same assay, conditions: aceclofenac; ratio of UV peak areas at 275 nm

| Molecule | Hydroxylated Ratio 2:1 |
| --- | --- |
| B1 | 2.5 |
| B2 | 4.9 |
| B3 | 7.0 |

Assay: Hydroxylation / de-N-ethylation of napropamide catalysed by cytochrome P450 aluC09 and mutants
Format: biochemical
Conditions: % by UV peak area at 275 nm; 0.125 mg/ml substrate, 27° C., 16-20 hours
How it was run: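 Conversion of napropamide (0.125 mg/ml) to hydroxylated and de-ethylated metabolites was measured by UPLC-MS after acetonitrile extraction. Reactions ran 16-20 h at 27° C in pH 7.4 potassium phosphate (50 mM) with 5 mM MgCl2, 1 mM NADP, 5 mM G6P and 2 UN/ml G6PDH. Enzymes were lyophilised P450 aluC09 variants, ferredoxin aluF03 and ferredoxin reductase SCF15A.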

| Molecule | Desethyl Napropamide (1.62 min) [%] | Desethyl-hydroxy-Napropamide (1.41 min) [%] | Hydroxy-Napropamide (1) (1.53 min) [%] | Hydroxy-Napropamide (2), (1.52 min) [%] | M-2Da (unidentified) (1.89 min) [%] | Napropamide (substrate) [%] |
| --- | --- | --- | --- | --- | --- | --- |
| B1 | 45.6 | 3.8 | 1.0 | 3.9 | 6.2 | 41.1 |
| B2 | 46.0 | 9.7 | 2.5 | 5.3 | 5.8 | 34.1 |
| B3 | 44.8 | 5.4 | 2.0 | 4.0 | 6.6 | 39.3 |

Same assay, conditions: napropamide; ratio of UV peak areas

| Molecule | Hydroxylated Ratio 2:1 |
| --- | --- |
| B1 | 3.9 |
| B2 | 2.1 |
| B3 | 2.1 |

Assay: O-demethylation of indomethacin catalysed by cytochrome P450 aluC09 and mutants
Format: biochemical
Conditions: % by UV peak area at 275 nm; 0.125 mg/ml substrate, 27° C., 16-20 hours
How it was run: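 Conversion was quantified by UPLC-UV/MS after acetonitrile extraction of 16-20 h, 27° C. shaken reactions. These contained 0.125 mg/ml substrate, mutant P450 with partner ferredoxin and reductase, 1 mM NADP plus 5 mM G6P and 2 U/ml G6PDH, in pH 7.4 phosphate with 5 mM MgCl2.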

| Molecule | Indomethacin (1.74 mins) [%] | O-demethyl-Indomethacin (1.52 mins) [%] |
| --- | --- | --- |
| B1 | 83.8 | 16.2 |
| B2 | 94.6 | 5.4 |
| B3 | 83.6 | 16.4 |

Assay: Metabolism of ritonavir by P450 aluC09 and mutants
Format: biochemical
Conditions: percent of substrate being converted; 0.125 mg/ml, 27° C., 16-20 hours; [CYP] per enzyme as in Table 8
How it was run: (§1)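 Read-out was substrate conversion by UPLC-MS after acetonitrile extraction. Reactions had contained lyophilised aluC09 mutant enzymes with ferredoxin and ferredoxin reductase partners, substrate at 0.125 mg/ml, and a glucose-6-phosphate dehydrogenase NADPH-regenerating system, shaken 16-20 hours at 27° C.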

| Molecule | % conversions (avg) Ritonavir [%] |
| --- | --- |
| B1 | 64.2 |
| B2 | 31.9 |
| B3 | 59.6 |

Assay: Metabolism of celecoxib by P450 aluC09 and mutants
Format: biochemical
Conditions: percent of substrate being converted; 0.125 mg/ml, 27° C., 16-20 hours; [CYP] per enzyme as in Table 8
How it was run: as §1

| Molecule | % conversions (avg) Celecoxib [%] |
| --- | --- |
| B1 | 2.3 |
| B2 | 5.4 |
| B3 | 2.5 |

Assay: Metabolism of epothilone B by P450 aluC09 and mutants
Format: biochemical
Conditions: percent of substrate being converted; 0.125 mg/ml, 27° C., 16-20 hours; [CYP] per enzyme as in Table 8
How it was run: as §1

| Molecule | % conversions (avg) Epothilone B [%] |
| --- | --- |
| B1 | 13.4 |
| B2 | 50.8 |
| B3 | 18.4 |

Assay: Metabolism of buparvaquone by P450 aluC09 and mutants
Format: biochemical
Conditions: percent of substrate being converted; 0.125 mg/ml, 27° C., 16-20 hours; [CYP] per enzyme as in Table 8
Experimental: Lyophilised material of mutants of CYP450aluC09, ferredoxinaluF03 and ferredoxin reductaseSCF15A was made as described in examples 3 and 4 and suspended in water (0.5 mL per vial) and biocatalysis was performed at 27° C. in the following conditions: 50 mM potassium phosphate pH 7.4, 5 mM MgCl2, 0.125 mg/ml substrate compound such as diclofenac (Sigma-Aldrich, UK), Aceclofenac (Tokyo Chemical Industry UK Ltd, UK), Indomethacin (Sigma-Aldrich, UK), Flufenamic acid (Sigma-Aldrich, UK), Napropamide (Sigma-Aldrich, UK), celecoxib (LC Laboratories, USA), valsartan (Tokyo Chemical Industry UK Ltd, UK), ruxolitinib (LC Laboratories, USA), 4-pyrrolidylacetophenone (Sigma-Aldrich, UK), tofacitinib (LC Laboratories, USA), bosentan (CarboSynth Ltd, UK), buparvaquone (MedChemtronica, Sweden), BIRB796 (Stratech Scientific Limited, UK), epothilone B (LC Laboratories, USA), ritonavir (Tokyo Chemical Industry UK Ltd, UK) or tivantinib (MedChemtronica, Sweden), P450AluC09 (concentration as in Table 8), 5 mM G6P, 1 mM NADP, 2 UN/ml G6PDH in a final volume of 100 μL. After 16-20 hours at 200 rpm (5 cm orbital shaker, Kuhner AG, Switzerland), reactions were extracted with an equal volume of acetonitrile, centrifuged to remove precipitated proteins and conversion assessed by UPLC-MS analysis.
However, of particular note when considering P450 concentration are the results for mutants M12, M20 and M34, as well as the deleterious impact on the range of substrate utility in mutants M39 and M40.

| Molecule | % conversions (avg) Buparvaquone [%] |
| --- | --- |
| B1 | 4.1 |
| B2 | 9.7 |
| B3 | 14 |

Assay: Metabolism of BIRB796 by P450 aluC09 and mutants
Format: biochemical
Conditions: percent of substrate being converted; 0.125 mg/ml, 27° C., 16-20 hours; [CYP] per enzyme as in Table 8
How it was run: as §1

| Molecule | % conversions (avg) BIRB796 [%] |
| --- | --- |
| B1 | 13.6 |
| B2 | 23 |
| B3 | 13.4 |

Assay: Metabolism of bosentan by P450 aluC09 and mutants
Format: biochemical
Conditions: percent of substrate being converted; 0.125 mg/ml, 27° C., 16-20 hours; [CYP] per enzyme as in Table 8
How it was run: as §1

| Molecule | % conversions (avg) Bosentan [%] |
| --- | --- |
| B1 | 98.7 |
| B2 | 100 |
| B3 | 98.8 |

Assay: Metabolism of valsartan by P450 aluC09 and mutants
Format: biochemical
Conditions: percent of substrate being converted; 0.125 mg/ml, 27° C., 16-20 hours; [CYP] per enzyme as in Table 8
How it was run: as §1

| Molecule | % conversions (avg) Valsartan [%] |
| --- | --- |
| B1 | 61.9 |
| B2 | 38 |
| B3 | 28.9 |

Assay: Metabolism of ruxolitinib by P450 aluC09 and mutants
Format: biochemical
Conditions: percent of substrate being converted; 0.125 mg/ml, 27° C., 16-20 hours; [CYP] per enzyme as in Table 8
How it was run: as §1

| Molecule | % conversions (avg) Ruxolitinib [%] |
| --- | --- |
| B1 | 30.8 |
| B2 | 48.9 |
| B3 | 46.6 |

Assay: Metabolism of 4-pyrrolidylacetophenone by P450 aluC09 and mutants
Format: biochemical
Conditions: percent of substrate being converted; 0.125 mg/ml, 27° C., 16-20 hours; [CYP] per enzyme as in Table 8
How it was run: as §1

| Molecule | % conversions (avg) 4-pyrrolidylacetophenone [%] |
| --- | --- |
| B1 | 2.9 |
| B2 | 30.8 |
| B3 | 5.6 |

Assay: Metabolism of tivantinib by P450 aluC09 and mutants
Format: biochemical
Conditions: percent of substrate being converted; 0.125 mg/ml, 27° C., 16-20 hours; [CYP] per enzyme as in Table 8
How it was run: as §1

| Molecule | % conversions (avg) Tivantinib [%] |
| --- | --- |
| B1 | 27.6 |
| B2 | 7.2 |
| B3 | 41.4 |

Assay: Metabolism of tofacitinib by P450 aluC09 and mutants
Format: biochemical
Conditions: percent of substrate being converted; 0.125 mg/ml, 27° C., 16-20 hours; [CYP] per enzyme as in Table 8
How it was run: as §1

| Molecule | % conversions (avg) Tofacitinib [%] |
| --- | --- |
| B1 | 0.7 |
| B2 | 0 |
| B3 | 1.4 |
